Measurements: article PMC4498328

Columns and labels:
[1] = target: Barley yellow dwarf virus-GPV readthrough protein (RTP), AcGFP1 fusion (Barley yellow dwarf virus-GPV); assay: co-IP; chemiluminescent Co-IP: pAcGFP1-bait and pProLabel-prey cotransfected into HEK293 cells, lysed after 48 h, anti-GFP polyclonal antibody and protein A/G agarose beads, ProLabel activity read as relative light units; negative control pAcGFP1-Lam/pProLabel-T
[2] = target: Barley yellow dwarf virus-GPV coat protein (CP), AcGFP1 fusion (Barley yellow dwarf virus-GPV); assay: as above

| Substance | relative strength of the interaction against the negative control (times the negative control) [1] | relative strength of the interaction against the negative control (times the negative control) [2] |
| --- | --- | --- |
| complexin, ProLabel fusion (natural protein) | 5.6 | – |
| cytochrome P450 4g15, ProLabel fusion (natural protein) | 3.4 | – |
| cytochrome c oxidase polypeptide IV-like, ProLabel fusion (natural protein) | 4.2 | – |
| nascent polypeptide-associated complex subunit alpha, ProLabel fusion (natural protein) | 4.9 | 1.6 |
| pancreatic lipase-related protein, ProLabel fusion (natural protein) | 23 | 3 |
| tropomyosin, ProLabel fusion (natural protein) | 8.7 | – |
| twinstar, ProLabel fusion (natural protein) | 7.1 | – |
